Test results published in article PMC1307573.
Where two headings read alike, the source gives them in different places.

Columns and labels:
Type in all cases: biochemical, Drosophila melanogaster
[1] = substrate: Nc1nc2c(ncn2[C@@H]2O[C@H](COP(=O)(O)OP(=O)(O)OP(=O)(O)O)[C@@H](O)[C@H]2O)c(=O)[nH]1
[2] = substrate: Nc1nc2c(ncn2[C@@H]2O[C@H](COP(=O)(O)OP(=O)(O)OP(=O)(O)O)[C@@H](O)[C@H]2O)c(=O)[nH]1; remark: listed apart in the source
[3] = substrate: Nc1nc2c(ncn2[C@@H]2O[C@H](COP(=O)(O)OP(=O)(O)OP(=O)(O)O)[C@@H](O)[C@H]2O)c(=O)[nH]1; remark: listed apart in the source
[4] = substrate: Nc1nc2c(ncn2[C@@H]2O[C@H](COP(=O)(O)OP(=O)(O)OP(=O)(O)O)[C@@H](O)[C@H]2O)c(=O)[nH]1; remark: listed apart in the source

B1: Gyc-88EL (Drosophila melanogaster) (protein)
chain: MYGLLLENLSEYIKSVYGEEKWEDIRRQAGIDSPSFSVHQVYPENLLQKLAKKAQQVLGVSERDFMDQMGVYFVGFVGQYGYDRVLSVLGRHMRDFLNGLDNLHEYLKFSYPRMRAPSFICENETKQGLTLHYRSKRRGFVYYTMGQIREVARYFYHKEMHIELVREEILFDTVHVTFQLTFDNRAFTLASLAMTREEKHLPISAHVLFEIFPFCMVFGADMVVRSIGNSLMVILPELLGKKITAWFDLVRPLIAFKFQTILNRTNNIFELVTVDPVTERFDVQNEDLLQHEDGSEPEKSLRLKGQMVYMENWRMIMFLGTPVMPDLTSLITTGLYINDLSMHDFSRDLMLAGTQQSVELKLALDQEQQKSKKLEESMRLLDEEMRRTDELLYQMIPKQVADRLRRGENPIDTCEMFDSVSILFSDIVTFTEICSRITPMEVVSMLNAMYSIFDKLTERNSVYKVETIGDAYMVVAGAPDKDANHAERVCDMALDMVDAITDLKDPSTGQHLRIRVGVHSGAVVAGIVGLKMPRYCLFGDTVNTASRMESTSIAMKVHISESTKVLIGPNYKIIERGEIDVKGKGTMGTYWLEERENRLPLQLTAALQVHPLSPVPPTPTPKTKAIMPPVSKPLTPMMPVSVSLAASMPTSNVPAVDVMASSSSISGLALTAAAAAHMSLHHQAVVAEALTGASVEVALPSVASGATGAAAGGGAPSDDRNSRIYSPVTFKDVARRSVANSPVRSCAQPDQERRRESRSNSTGHVFMRTPSEIFGSLILDTEEFLEDLQISRSSLANNNNNQSPCGFSPTPPFRIGSAPPKPRPSNPDKFTPEELAAMDQLTPPSTAPARETASCSSASLDRDKATKLKKITFSNSSSLDATTPTALAAVVCPMRTKSPPMAVAPVMHMVQASTSKGDGQRPGSKDSVSSISLHSPPPHRSNSAPARPHSMSKAARKAFLAAKQTKAMEKLDKMIEEVQEVESQSVAKAANMRLALYGHDGGGDLAAGGCPLFLPPPPQQQQQQQQSLMPSSISDSGLCSHGHSHAPSCHHMDPKMTNSQSFQHSPRGGITHQCCSGFGHGNGRHSHRMHSNACRIL
Km ([1]; other: in the presence of Mg2+): 1730 ± 1300 µM
Vmax ([1]; other: in the presence of Mg2+): 1.32 ± 0.33 pmoles cGMP/min/mg protein
Km ([1]; other: in the presence of Mn2+): 32 ± 11 µM
Vmax ([1]; other: in the presence of Mn2+): 2.26 ± 0.16 pmoles cGMP/min/mg protein

B2: Gyc-88EL/89Da (Drosophila melanogaster) (protein)
chain 1: MYGLLLENLSEYIKSVYGEEKWEDIRRQAGIDSPSFSVHQVYPENLLQKLAKKAQQVLGVSERDFMDQMGVYFVGFVGQYGYDRVLSVLGRHMRDFLNGLDNLHEYLKFSYPRMRAPSFICENETKQGLTLHYRSKRRGFVYYTMGQIREVARYFYHKEMHIELVREEILFDTVHVTFQLTFDNRAFTLASLAMTREEKHLPISAHVLFEIFPFCMVFGADMVVRSIGNSLMVILPELLGKKITAWFDLVRPLIAFKFQTILNRTNNIFELVTVDPVTERFDVQNEDLLQHEDGSEPEKSLRLKGQMVYMENWRMIMFLGTPVMPDLTSLITTGLYINDLSMHDFSRDLMLAGTQQSVELKLALDQEQQKSKKLEESMRLLDEEMRRTDELLYQMIPKQVADRLRRGENPIDTCEMFDSVSILFSDIVTFTEICSRITPMEVVSMLNAMYSIFDKLTERNSVYKVETIGDAYMVVAGAPDKDANHAERVCDMALDMVDAITDLKDPSTGQHLRIRVGVHSGAVVAGIVGLKMPRYCLFGDTVNTASRMESTSIAMKVHISESTKVLIGPNYKIIERGEIDVKGKGTMGTYWLEERENRLPLQLTAALQVHPLSPVPPTPTPKTKAIMPPVSKPLTPMMPVSVSLAASMPTSNVPAVDVMASSSSISGLALTAAAAAHMSLHHQAVVAEALTGASVEVALPSVASGATGAAAGGGAPSDDRNSRIYSPVTFKDVARRSVANSPVRSCAQPDQERRRESRSNSTGHVFMRTPSEIFGSLILDTEEFLEDLQISRSSLANNNNNQSPCGFSPTPPFRIGSAPPKPRPSNPDKFTPEELAAMDQLTPPSTAPARETASCSSASLDRDKATKLKKITFSNSSSLDATTPTALAAVVCPMRTKSPPMAVAPVMHMVQASTSKGDGQRPGSKDSVSSISLHSPPPHRSNSAPARPHSMSKAARKAFLAAKQTKAMEKLDKMIEEVQEVESQSVAKAANMRLALYGHDGGGDLAAGGCPLFLPPPPQQQQQQQQSLMPSSISDSGLCSHGHSHAPSCHHMDPKMTNSQSFQHSPRGGITHQCCSGFGHGNGRHSHRMHSNACRIL
chain 2: not shown
Km ([2]; other: in the presence of Mg2+): 2060 ± 1950 µM
Vmax ([2]; other: in the presence of Mg2+): 1.92 ± 0.65 pmoles cGMP/min/mg protein
Km ([2]; other: in the presence of Mn2+): 149 ± 14 µM
Vmax ([2]; other: in the presence of Mn2+): 90.1 ± 2.34 pmoles cGMP/min/mg protein

B3: Gyc-88EL/89Db (Drosophila melanogaster) (protein)
chain 1: MYGLLLENLSEYIKSVYGEEKWEDIRRQAGIDSPSFSVHQVYPENLLQKLAKKAQQVLGVSERDFMDQMGVYFVGFVGQYGYDRVLSVLGRHMRDFLNGLDNLHEYLKFSYPRMRAPSFICENETKQGLTLHYRSKRRGFVYYTMGQIREVARYFYHKEMHIELVREEILFDTVHVTFQLTFDNRAFTLASLAMTREEKHLPISAHVLFEIFPFCMVFGADMVVRSIGNSLMVILPELLGKKITAWFDLVRPLIAFKFQTILNRTNNIFELVTVDPVTERFDVQNEDLLQHEDGSEPEKSLRLKGQMVYMENWRMIMFLGTPVMPDLTSLITTGLYINDLSMHDFSRDLMLAGTQQSVELKLALDQEQQKSKKLEESMRLLDEEMRRTDELLYQMIPKQVADRLRRGENPIDTCEMFDSVSILFSDIVTFTEICSRITPMEVVSMLNAMYSIFDKLTERNSVYKVETIGDAYMVVAGAPDKDANHAERVCDMALDMVDAITDLKDPSTGQHLRIRVGVHSGAVVAGIVGLKMPRYCLFGDTVNTASRMESTSIAMKVHISESTKVLIGPNYKIIERGEIDVKGKGTMGTYWLEERENRLPLQLTAALQVHPLSPVPPTPTPKTKAIMPPVSKPLTPMMPVSVSLAASMPTSNVPAVDVMASSSSISGLALTAAAAAHMSLHHQAVVAEALTGASVEVALPSVASGATGAAAGGGAPSDDRNSRIYSPVTFKDVARRSVANSPVRSCAQPDQERRRESRSNSTGHVFMRTPSEIFGSLILDTEEFLEDLQISRSSLANNNNNQSPCGFSPTPPFRIGSAPPKPRPSNPDKFTPEELAAMDQLTPPSTAPARETASCSSASLDRDKATKLKKITFSNSSSLDATTPTALAAVVCPMRTKSPPMAVAPVMHMVQASTSKGDGQRPGSKDSVSSISLHSPPPHRSNSAPARPHSMSKAARKAFLAAKQTKAMEKLDKMIEEVQEVESQSVAKAANMRLALYGHDGGGDLAAGGCPLFLPPPPQQQQQQQQSLMPSSISDSGLCSHGHSHAPSCHHMDPKMTNSQSFQHSPRGGITHQCCSGFGHGNGRHSHRMHSNACRIL
chain 2: not shown
Km ([3]; other: in the presence of Mg2+): 890 ± 170 µM
Vmax ([3]; other: in the presence of Mg2+): 4.83 ± 0.33 pmoles cGMP/min/mg protein
Km ([3]; other: in the presence of Mn2+): 9.4 ± 4.8 µM
Vmax ([3]; other: in the presence of Mn2+): 8.72 ± 0.82 pmoles cGMP/min/mg protein

B4: Gycα-99B/β-100B (Drosophila melanogaster) (protein)
chain 1: MACPFFRRADSLTRQPSVIAEPGGHWALEDEELSDDALTLTHLQMAIQLLTAPSNEDLNTAVTSLVAKYRQNWPNIHKLKLDPQTFKSCANYDYLADIQELLLKMDEASASEILVLLGEELITCCCTGIIERAFRCLGTDLQEFLGSLDGVYDVLKLQEEDVTDTGFVCAGEGELIFTSERPVIAWLLLGSLKALTRMLYKVDVNIKIEPVEGDARRYRYLFSLVKDNSQTMLMGRPTSVSKTIPETVQRSNSSNASDLQMNSSSFCKMFPWHFIMNEQLELVQLGRGFSKLYKPYMADFGCQATTYFDFKRPKGLTMKFRDIVRRTYTPFLIGLNNPPGAVDFPAIGLEIKGQMVHCPESNSLLFIGSPFLDGLDGLTCNGLFISDIPLHDATREVILVGEQARAQDGLRRRMDKIKNSIEEANSAVTKERKKNVSLLHLIFPAEIAEKLWLGSSIDAKTYPDVTILFSDIVGFTSICSRATPFMVISMLEGLYKDFDEFCDFFDVYKVETIGDAYCVASGLHRASIYDAHKVAWMALKMIDACSKHITHDGEQIKMRIGLHTGTVLAGVVGRKMPRYCLFGHSVTIANKFESGSEALKINVSPTTKDWLTKHEGFEFELQPRDPSFLPKEFPNPGGTETCYFLESFRNPALDSELPLVEHINVSMKTISEGGDA
chain 2: MYGFVNYALELLVLKHFGEEIWEKIKKKAMVSMEGQFLVRQIYDDEITYNLIGAAVEILNIPADDILELFGKTFFEFCQDSGYDKILQVLGATPRDFLQNLDALHDHLGTLYPGMRAPSFRCTEKDGELLLHYYSERPGLEHIVIGIVKAVASKLHGVEVEIDIVKRKGEPIDEAEKERAIARENQQLLEDAVATTTTGSATVVLAPSSDAERNNNHNGSNGSNNNGMANNGNTVNVNNNNDGQQIASETDPSIALSTCPIAQDSFDCDGDKEQKCLRLLKNKSDDIERYDHVQFLIREINVAAKSQVDAKKDEVPDDMEFLCEAPLISPATFCKVFPFHLMFDRQMKIVQAGKAVSRVIPRVAEENCSLIEVVEAIRPHLQLNFENILSHINTIYVLQTRQGAMSSRHEQRFLRLKGQMMYIPETDRILFQCYPSVMNLDDLTKKGLYISDVPLHDAARDLVLLSEKFEAEYKLTKNLEMLTDKLQQTFRDLESEKQKTDRLLYSVLPKSVANELRHQRPVPPKRYDSVTLMFSGIVGFGQYCAANTDPDGAMKIVKMLNELYTVFDALTDSKRNLNVYKVETVGDKYMAVSGLPDHCEDHAKCMARVALDMMDMAKNVKMGSNPVQITIGIHSGEVVTGVIGNRVPRYCLFGNTVNLTSRTETTGVPGRINVSEETYRLLCMAINQDDSFHLEYRGPVIMKGKPTPMDCWFLTRATSSILGGTSSTGGSGGGGNGSLDSPLLQPATPTAGAATPIPVVAQRAAGHASVSRTSSAGGGGGGAVVGT
Km ([4]; other: in the presence of Mg2+): 370 ± 60 µM
Vmax ([4]; other: in the presence of Mg2+): 2.11 ± 0.10 pmoles cGMP/min/mg protein
Km ([4]; other: in the presence of Mn2+): 31 ± 8 µM
Vmax ([4]; other: in the presence of Mn2+): 204 ± 10.6 pmoles cGMP/min/mg protein
